Experimental data from the supplement of paper PMC10567573.

B1: KCNAB2 (parent)
chain: SSIIHEIDSILGNKPYSKKDYRS

Variants of: B1
Test: protein stability index of a GFP-peptide fusion (GPS, HEK-293T) (PSI 1-6); higher = more stable
Settings: c terminus: native
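Also: lentivirally expressed fusions sorted by FACS into six bins by GFP to DsRed ratio, PSI derived from sequencing read proportions per bin multiplied by bin number.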

Protein stability index of substitutions, site by site:
I10: G 4.32 | H 4.15 | K 4.87 | L 3.12 | M 3.32 | N 4.38 | P 4.38 | Q 4.47 | R 4.3 | S 3.68 | T 3.89 | V 3.67 | W 1.96 | Y 3
L11: A 3.9 | C 3.86 | D 4.72 | E 4.69 | F 3.07 | G 4.19 | H 4.46 | I 3.42 | K 4.03 | M 4.04 | N 4 | P 4.19 | Q 4.91 | R 4.13 | S 4.36 | T 4.27 | V 3.69 | W 2.63 | Y 3.4
G12: A 2.61 | C 2.82 | D 3.81 | E 3.69 | F 4.21 | I 2.62 | K 3.38 | L 2.8 | M 3.77 | N 3.18 | P 3.86 | Q 3.16 | R 2.73 | S 3.51 | T 3.24 | V 2.76 | W 2.6 | Y 2.97
N13: A 2.14 | C 2.25 | E 2.82 | F 2.68 | G 2.61 | H 3 | I 2.51 | L 2.47 | M 2.56 | P 2.54 | Q 2.63 | R 3.1 | S 2.59 | T 2.97 | V 2.59 | W 2.38 | Y 1.79
K14: A 2.62 | C 2.55 | D 3.31 | E 3.24 | F 1.99 | G 2.69 | H 2.32 | I 2.63 | L 2.77 | M 2.9 | N 3.22 | P 3 | Q 3.1 | R 3.09 | S 3.49 | T 2.89 | V 2.94 | W 1.7 | Y 2.32
P15: A 3.54 | C 3.14 | D 3.27 | E 3.18 | F 2.32 | G 3.36 | H 2.63 | I 3.18 | K 3.36 | L 2.84 | M 3.28 | N 3.39 | Q 2.8 | R 2.98 | S 3.42 | T 3.33 | V 2.71 | W 2.44 | Y 2.63
Y16: A 2.85 | C 3.55 | D 3.65 | E 4.12 | F 3.41 | G 3.59 | H 3.27 | I 3.8 | K 2.48 | L 3.22 | M 2.71 | N 3.34 | P 3.6 | Q 3.14 | R 2.22 | S 3.02 | T 3.78 | V 3.26 | W 2.19
S17: A 3.74 | C 3.79 | D 3.22 | E 3.77 | F 3.2 | G 3.15 | H 2.95 | I 3.54 | K 3.43 | L 2.93 | M 3.2 | N 2.99 | P 3.31 | Q 3.76 | R 3.23 | T 2.7 | V 3.45 | W 2.29 | Y 2.8
K18: A 2.33 | C 2.08 | D 2.7 | E 3.16 | F 2.32 | G 2.61 | H 2.48 | I 2.11 | L 2.12 | M 1.27 | N 3.1 | P 2.03 | Q 2.76 | R 2.94 | S 2.69 | T 2.56 | V 2.59 | W 3.39 | Y 2.24
K19: A 3.55 | C 3.2 | D 4.08 | E 4.45
